In patent US20130116146A1 (University of California, published 2013):
Non-standard residues stand in square brackets, D forms with d. Primed or numbered codes have the meaning given here. No end group written: not given here. Me3″ = trimethyl (trimethyl-lysine); Ahx = NCCCCCC(=O)O

T1: Polycomb protein chromodomain (a.a. 1-90), GST-tagged fusion protein (Drosophila melanogaster, UniProt P26017 1-90)
T1 construct: range 1-90; also called Polycomb-GST fusion protein; Polycomb chromodomain; not shown: GST tag
T1 sequence (looked up): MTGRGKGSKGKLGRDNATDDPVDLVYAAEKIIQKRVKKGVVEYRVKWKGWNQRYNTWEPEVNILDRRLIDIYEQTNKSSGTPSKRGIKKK


molecular target: T2, GST-tagged Abl SH3 domain fusion protein (human, UniProt P00519 61-121, limits assumed); test: peptide microarray, GST-Abl SH3 5 uM overlaid, peptide printed at 1 mg/ml, Cy3 fluorescence, triplicates
T2 construct: domain: SH3 domain; also called GST-Abl SH3; Abl1 SH3 domain; not shown: GST tag
Description: All peptides were synthesized by Sigma-Aldrich. The peptides were printed onto glass slides in triplicates by ArrayIt Corporation. A buffer blank and a Cy3 marker were also printed in triplicates. The peptide arrays were blocked with the blocking buffer (5% non-fat dry milk, TBS pH8.0, 0.05% Tween 20) for an hour at room temperature. Next, the peptide arrays were incubated overnight at 4° C. with purified GST-Abl SH3 in the blocking buffer at a final concentration of 5 μM. After washing three times for ten minutes with the TBST buffer (TBS pH8.0, 0.05% Tween 20), an anti-GST antibody (Santa Cruz Biotechnology) was added to a final concentration of 0.2 μg/ml in the blocking buffer for one hour at room temperature. The arrays were then washed three times for ten minutes with the TBST buffer. Finally, the arrays were incubated with the secondary antibody, Cy3-conjugated goat-anti-mouse IgG (H+L) (Jackson ImmunoResearch), for one hour at room temperature, followed by washing for three times for ten minutes with the TBST buffer. As a control, the peptide array was incubated with the anti-GST and the secondary antibodies alone.
To analyze the microarray data, the spots that were flagged as noisy were first removed. For the high (1 mg/ml) and low (0.5 mg/ml) printing concentrations, 724 and 767 (out of 800) spots remained for later analyses, respectively. Next, the statistical cut-off was determined for the significant fluorescence signal by modeling the background intensity distribution using a Gamma distribution (FIG. 4). The spots were binned based on the fluorescence intensity. To have a better curve fitting, the long tail of the histogram that represented strong binding peptides was removed and only the bins with intensity less than 900 and 1500 for the high and low concentrations, respectively, were kept. The model fitting and p-value calculation were conducted using R and P-value of 0.05 was used as the cutoff.

T2 sequence (P00519 61-121 limits assumed): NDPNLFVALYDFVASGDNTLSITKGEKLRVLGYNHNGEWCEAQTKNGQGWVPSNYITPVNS

Q: How did the “Average fluorescence intensity (high printing concentration)” value (“Average fluorescence intensity” below) turn out when [Ahx]SRGGPPPPPP [WASL_HUMAN 283-292 peptide SRGGPPPPPP] was run?
A: 744

Q: With [Ahx]GRGGPPPPPP [WASP_HUMAN 363-372 peptide GRGGPPPPPP] as the binder, how does the “Average fluorescence intensity” value read?
A: 1300

Q: With [Ahx]PPPPPPPGPP (protein label as printed) [WASP2_HUMAN 394-403 peptide PPPPPPPGPP] as the binder, how does the “Average fluorescence intensity” value read?
A: 2380

Q: With [Ahx]LPPPPLPPPP [YLPM1_HUMAN 81-90 peptide LPPPPLPPPP] as the binder, how does the “Average fluorescence intensity” value read?
A: 595

Q: Which “Average fluorescence intensity” value does the source give for [Ahx]GPVAPPPPPP [WASL_HUMAN 369-378 peptide GPVAPPPPPP] here?
A: 45000

Q: For PPSLPPPPPP (not fully specified (N-terminus)) [CBLB_HUMAN 818-827 peptide PPSLPPPPPP], which “Average fluorescence intensity” value is on record?
A: 35000

Q: Which “Average fluorescence intensity” value does the source give for [Ahx]GPPMPPPPPP [WASP_HUMAN 390-399 peptide GPPMPPPPPP] here?
A: 23400

Q: How did the “Average fluorescence intensity” value turn out when APTVPPPLPP (not fully specified (N-terminus)) [3BP1_HUMAN 616-625 peptide APTVPPPLPP] was run?
A: 45100

Q: [Ahx]APSGPPPPPP [WASL_HUMAN 354-363 peptide APSGPPPPPP] was tested. Which “Average fluorescence intensity” value did it give?
A: 52300

Q: How did the “Average fluorescence intensity” value turn out when LPPGPPPPVP (not fully specified (N-terminus)) [CPSF6_HUMAN 292-301 peptide LPPGPPPPVP] was run?
A: 1900

Q: With SPPLPPPPPP (not fully specified (N-terminus)) [RAPH1_HUMAN 677-686 peptide SPPLPPPPPP] as the binder, how does the “Average fluorescence intensity” value read?
A: 17500

Q: Which “Average fluorescence intensity” value does the source give for [Ahx]VAPPPPPPPP [WASL_HUMAN 371-380 peptide VAPPPPPPPP] here?
A: 914

Q: [Ahx]PPAGGPPPPP (protein label as printed) [VASP2_HUMAN 165-174 peptide PPAGGPPPPP] was tested. Which “Average fluorescence intensity” value did it give?
A: 26200

Q: [Ahx]PVAPPPPPPP [WASL_HUMAN 370-379 peptide PVAPPPPPPP] was tested. Which “Average fluorescence intensity” value did it give?
A: 48800

Q: How did the “Average fluorescence intensity” value turn out when CPLQPPPPPP (not fully specified (N-terminus)) [PDE4D_HUMAN peptide CPLQPPPPPP] was run?
A: 840

Q: PPPPPVPPPP (not fully specified (N-terminus)) [EVL_HUMAN 185-194 peptide PPPPPVPPPP] was tested. Which “Average fluorescence intensity” value did it give?
A: 4680

Q: With [Ahx]PPPPPMPPPP [YLPM1_HUMAN 102-111 peptide PPPPPMPPPP] as the binder, how does the “Average fluorescence intensity” value read?
A: 22800

Q: PNQVPPPPPP (not fully specified (N-terminus)) [ENAH_HUMAN 357-366 peptide PNQVPPPPPP] was tested. Which “Average fluorescence intensity” value did it give?
A: 58000

Q: APPTPPPPPP (not fully specified (N-terminus)) [RAPH1_HUMAN 811-820 peptide APPTPPPPPP] was tested. Which “Average fluorescence intensity” value did it give?
A: 54400

Q: PPAYPPPPVP (not fully specified (N-terminus)) [3BP2_HUMAN 201-210 peptide PPAYPPPPVP] was tested. Which “Average fluorescence intensity” value did it give?
A: 29700

Q: With PPAVPPPPVP (not fully specified (N-terminus)) [RIN1_HUMAN 259-268 peptide PPAVPPPPVP] as the binder, how does the “Average fluorescence intensity” value read?
A: 42600

molecular target: T1, Polycomb protein chromodomain (a.a. …); test: peptide microarray, GST-Polycomb chromodomain overlaid on trimethylated peptides, p<0.001 in at least two of three spots
Source text: There are a total of 46 histone peptide sequences (9 a.a. long) with a single lysine-trimethylation site which are conserved between the human and fruit fly H2, H3 and H4 proteins (Table II). These were screened for Polycomb protein chromodomain binding by peptide microarray. Each peptide sequence was screened as triplets, and the fluorescence intensity was quantified with background subtraction individually for each spot from the microarray images by ImageJ⁹ and the whole data set was fit to a mixed Gaussian distribution model (FIG. 8, Table III).
The peptide microarray was rinsed with TBST buffer (25 mM Tris, 125 mM NaCl, 0.05% Tween-20, pH 8) followed by blocking with 5% non-fat milk in TBST (room temperature 1 hour or 4° C. overnight). The slide was then incubated at 4° C. with Polycomb-GST fusion protein at a final concentration of […] in 5% non-fat milk/TBST for 6 hours. After washing three times for 10 minutes each with TBST, the slide was incubated with an anti-GST mouse monoclonal IgG antibody (Thermo) at a final concentration of 1 μg/mL in 5% non-fat milk/TBST and shaken gently for 1 hour at room temperature. […] The slide was shaken for 1 hr at room temperature and washed three times with TBST.

Q: Does GRIHRHLK(Me3″)S (also called H2AZ 37) [GRIHRHLKS, H2AV_DROME lysine site 37, trimethylated] bind?
A: binds

Q: Does PRKQLATK(Me3″)A (also called H3.3 23) [PRKQLATKA, H3_DROME lysine site 23, trimethylated] bind?
A: binds

Q: Does DSGKAKAK(Me3″)A (also called H2AV 15) [DSGKAKAKA, H2AV_DROME lysine site 15, trimethylated] bind?
A: binds

Q: Does RIHRLLRK(Me3″)G (also called H2A1A 35) [RIHRLLRKG, H2A_DROME lysine site 35, trimethylated] bind?
A: binds

Q: Does REIRRYQK(Me3″)S (also called H3.3 56) [REIRRYQKS, H3_DROME lysine site 56, trimethylated] bind?
A: binds

Q: Does ASKDLKVK(Me3″)R (also called H2AZ, H2AV 79) [ASKDLKVKR, H2AV_DROME lysine site 79, trimethylated] bind?
A: binds

Q: Does GGAKRHRK(Me3″)V (also called H4 20) [GGAKRHRKV, H4_DROME lysine site 20, trimethylated] bind?
A: binds

Q: Does MDVVYALK(Me3″)R (also called H4 91) [MDVVYALKR, H4_DROME lysine site 91, trimethylated] bind?
A: binds

Q: Does RTKQTARK(Me3″)S (also called H3.3 9) [RTKQTARKS, H3_DROME lysine site 9, trimethylated] bind?
A: binds

Q: Does LATKAARK(Me3″)S (also called H3K27me3; H3.3 27) [LATKAARKS, H3_DROME lysine site 27, trimethylated] bind?
A: binds

Q: Does EGTKAVTK(Me3″)Y (also called H2B1A 117) [EGTKAVTKY, H2B_DROME lysine site 117, trimethylated] bind?
A: binds

Q: Does IQAVLLPK(Me3″)K (also called H2A1 117) [IQAVLLPKK, H2A_DROME lysine site 117, trimethylated] bind?
A: binds
